Measurements published in patent US20180251559A1, “Methods for the Modulation of LGALS3BP to Treat Systemic Lupus Erythematosus” (Merck Patent GmbH, priority 2015, published 2018).

What was measured:
Format in all cases: cell-based
[1] = tested on: primary human B cells; experiment: IL-6 secretion by TLR7 agonist-activated B cells (AlphaLISA); details: 48 h after B cell stimulation with TLR7 agonist
Procedure: IL-6 secretion was measured 2 days after stimulation by AlphaLISA.
The effect of anti-LGALS3BP antibodies on IgG secretion by primary human B cells was evaluated. IgG secretion by TLR7 activated B cells was inhibited by almost 90% in presence of anti-LGALS3BP antibody or anti-LGALS3BP F(ab′)2 (74%) to exclude inhibition through FcγRIIb present on B cells (FIGS. 3A-1 and 3A-2). […] The same inhibitory effect of the LGALS3BP antibody was observed when B cells were activated with CpG (94%) or anti-IgM/CD40L/CpG (77%). IgM secretion was inhibited by antibody blockade as well excluding a role of LGALS3BP in isotype switching (FIG. 3B-1, FIG. 3B-2 and FIG. 3B-3). […] IL-6 secretion was measured to investigate if LGALS3BP blockade interferes with TLR7 activation and signaling thereby reducing B cell proliferation. A 37% decrease in IL-6 production was observed 48 h after B cell stimulation in the presence of anti-LGALS3BP antibody. This reduction was LGALS3BP specific and not mediated through FcγRIIb given the same effect was measured in the presence of Fc block or with anti-LGALS3BP F(ab′)2. […] To test if anti-LGALS3BP antibodies reduce B cell survival by blocking B cell activation CD69 upregulation was measured 16 h after activation with TLR7 agonist (FIG. 3C-1, FIG. 3C-2 and FIG. 3C-3). […]

[2] = tested on: primary human B cells; experiment: IgG secretion by stimulated primary human B cells (AlphaLISA); details: for IC50: pre-incubated 30 minutes, TLR7 agonist for 5 days, AlphaLISA, read-out: IgG production
Procedure: (§1) A library of conditioned cell culture supernatants with secreted proteins was added and IgG secretion and cell viability (CTG, CellTiter-Glo) measured at the end of culture.
IgG was measure by AlphaLISA 5 days after stimulation.
FIG. 3A-1 and FIG. 3A-2 show data from isolated primary human B cells that were stimulated with small molecule TLR7 agonist in the presence of potential LGALS3BP inhibitors and controls (left). Anti-LGALS3BP antibody was added to primary human B cells activated with CpG or anti-IgM/CD40L/CpG (right). IgG secretion was measured 5 days later by AlphaLISA.
(§2) To identify secreted proteins that affect IgG production by B cells a selection of proteins from the human secretome in an IgG secretion assay were screened using primary human B cells. B cells from healthy volunteers were exposed to 1400 recombinantly expressed secreted proteins before activation with a TLR7 small molecule agonist. After 5 days IgG was measured to identify proteins that enhance or inhibit IgG secretion. […] LGALS3BP was independently identified as the most differentially regulated gene in blood from lupus nephritis patients compared to healthy volunteers.
The effect of anti-LGALS3BP antibodies on IgG secretion by primary human B cells was evaluated. IgG secretion by TLR7 activated B cells was inhibited by almost 90% in presence of anti-LGALS3BP antibody or anti-LGALS3BP F(ab′)2 (74%) to exclude inhibition through FcγRIIb present on B cells (FIGS. 3A-1 and 3A-2). […] The same inhibitory effect of the LGALS3BP antibody was observed when B cells were activated with CpG (94%) or anti-IgM/CD40L/CpG (77%). IgM secretion was inhibited by antibody blockade as well excluding a role of LGALS3BP in isotype switching (FIG. 3B-1, FIG. 3B-2 and FIG. 3B-3). […] IL-6 secretion was measured to investigate if LGALS3BP blockade interferes with TLR7 activation and signaling thereby reducing B cell proliferation. A 37% decrease in IL-6 production was observed 48 h after B cell stimulation in the presence of anti-LGALS3BP antibody. This reduction was LGALS3BP specific and not mediated through FcγRIIb given the same effect was measured in the presence of Fc block or with anti-LGALS3BP F(ab′)2. Lactose also had the same effect, thereby, excluding a direct effect of the antibody through cross-linking the surface-bound protein. […] To test if anti-LGALS3BP antibodies reduce B cell survival by blocking B cell activation CD69 upregulation was measured 16 h after activation with TLR7 agonist (FIG. 3C-1, FIG. 3C-2 and FIG. 3C-3). No difference in percentage of CD69^+ activated cells or expression levels of CD69 was observed when an anti-LGALS3BP antibody was added. LGALS3BP blockade inhibits IgG secretion independent of the stimulation protocol used. To determine if LGALS3BP blockade has an effect on B cell survival in the absence of stimulation additional experiments were conducted. Adding the antibody to non-stimulated B cells reduced viability by 66% (FIG. 3D-1 and FIG. 3D-2). This effect was most pronounced in B cells.
(§3) Primary B cells from healthy human donors were stimulated in the presence of galectin-3 inhibitors in order to determine if galectin-3 plays a role in the function of LGALS3BP in B cell biology. Specifically, freshly isolated B cells from healthy volunteers were pre-incubated with galectin-3 (Gal-3) inhibitors for 30 minutes before stimulation with TLR7 agonist for 5 days. Supernatants were harvested and IgG measured by AlphaLISA. Cell viability was measured by CellTiter-Glo (ATP production).

[3] = tested on: primary human B cells; experiment: Viability of TLR7 agonist-stimulated B cells (CellTiter-Glo, ATP); details: for IC50: pre-incubated 30 minutes, TLR7 agonist for 5 days, CellTiter-Glo
Procedure: as §1
B cell viability was measured 5 days later by CellTiter-Glo.
as §2, §3

[4] = tested on: primary human B cells; experiment: B cell activation, CD69 expression by flow cytometry; details: 16 h after stimulation with TLR7 agonist
Procedure: FIG. 2A-1 and FIG. 2A-2 show data from B cells stimulated with small molecule TLR7 agonist in the presence of increasing concentrations of purified recombinant LGALS3BP. B cell activation was measured 16 h later by flow cytometry quantifying CD69 expression.
To investigate if addition of LGALS3BP affects activation of naïve B cells CD69 expression was measured 16 h after stimulation with TLR7 agonist. All B cells had increased CD69 expression compared to non-stimulated cells but no change was seen upon addition of various concentrations of recombinant LGALS3BP (FIG. 2A-1 and FIG. 2A-2). The localization of endogenous LGALS3BP in primary human B cells with an antibody specific for LGALS3BP was then evaluated (FIG. 2b). […]
The effect of anti-LGALS3BP antibodies on IgG secretion by primary human B cells was evaluated. […] IL-6 secretion was measured to investigate if LGALS3BP blockade interferes with TLR7 activation and signaling thereby reducing B cell proliferation. […] This reduction was LGALS3BP specific and not mediated through FcγRIIb given the same effect was measured in the presence of Fc block or with anti-LGALS3BP F(ab′)2. […] To test if anti-LGALS3BP antibodies reduce B cell survival by blocking B cell activation CD69 upregulation was measured 16 h after activation with TLR7 agonist (FIG. 3C-1, FIG. 3C-2 and FIG. 3C-3). […]

[5] = tested on: primary human macrophages; experiment: LGALS3BP induction in in vitro differentiated macrophages (QPCR, ELISA)
Description: Expression between samples was normalized using HPRT1 as a housekeeping gene. […] LGALS3BP has an IRF binding site consistent with regulation by type I interferons. To determine which pathways can induce LGALS3BP expression, primary human monocytes were differentiated into macrophages in vitro and subsequently were stimulated with IFN-α, IFN-γ, TLR4 agonist (LPS), TLR7/8 agonist (resiquimod) and TLR9 agonist (CpG). […] All stimuli induced secretion of IL-6.

Molecule: OC[C@H]1O[C@@H](O[C@H]2[C@H](O)[C@@H](O)C(O)O[C@@H]2CO)[C@H](O)[C@@H](O)[C@H]1O (stereo partly drawn) [Lactose, reference compound]
- IL-6 production, effect in words [1]: same effect
- inhibition of IgG secretion ([2]; TLR7 activated B cells, 5 days): 59%

Molecule: CCCO[C@@H]1O[C@H](CO)[C@@H](O[C@@H]2O[C@H](CO)[C@H](O)[C@H](O)[C@H]2O)[C@H](O)[C@H]1O [Beta n-propal lactoside, reference compound]
- IC50 [3]: > 10 µM
- IC50 [2]: > 10 µM

Molecule: OC[C@H]1O[C@@](CO)(O[C@H]2O[C@H](CO)[C@@H](O)[C@H](O)[C@H]2O)[C@@H](O)[C@@H]1O [sucrose, reference compound]
- IgG secretion, effect in words ([2]; TLR7 activated B cells): did not inhibit IgG secretion

Molecule: CC(=O)N[C@H]1C(O)O[C@H](CO)[C@@H](O[C@@H]2O[C@H](CO)[C@H](O)[C@H](O)[C@H]2O)[C@@H]1O (stereo partly drawn) [LacNAc, N-Acetyl-D-lactosamine, N-Acetyl-D-lactosamine, reference compound]
- IC50 ([3]; Homo sapiens, B-cell): > 10 µM
- IC50 ([2]; Homo sapiens, B-cell): > 10 µM

B1: LGALS3BP: secreted scavenger receptor family protein, full length human sequence SEQ ID NO: 1; used as recombinant protein (protein, listed as Homo sapiens)
chain: MTPPRLFWVWLLVAGTQGVNDGDMRLADGGATNQGRVEIFYRGQWGTVCDNLWDLTDASVVCRALGFENATQALGRAAFGQGSGPIMLDEVQCTGTEASLADCKSLGWLKSNCRHERDAGVVCTNETRSTHTLDLSRELSEALGQIFDSQRGCDLSISVNVQGEDALGFCGHTVILTANLEAQALWKEPGSNVTMSVDAECVPMVRDLLRYFYSRRIDITLSSVKCFHKLASAYGARQLQGYCASLFAILLPQDPSFQMPLDLYAYAVATGDALLEKLCLQFLAWNFEALTQAEAWPSVPTDLLQLLLPRSDLAVPSELALLKAVDTWSWGERASHEEVEGLVEKIRFPMMLPEELFELQFNLSLYWSHEALFQKKTLQALEFHTVPFQLLARYKGLNLTEDTYKPRIYTSPTWSAFVTDSSWSARKSQLVYQSRRGPLVKYSSDYFQAPSDYRYYPYQSFQTPQHPSFLFQDKRVSWSLVYLPTIQSCWNYGFSCSSDELPVLGLTKSGGSDRTIAYENKALMLCEGLFVADVTDFEGWKAAIPSALDTNSSKSTSSFPCPAGHFNGFRTVIRPFYLTNSSGVD
- CD69 expression / percentage of CD69+ activated cells [4]: no change
- cell viability and metabolic activity (ATP measured by CellTiter-Glo assay) ([3]; secretome screen, TLR7 small molecule agonist, 5 days): doubled
- increase in IgG ([2]; purified recombinant protein, B cells stimulated with TLR9 agonist CpG): 1.9 fold
- enhanced IgG production ([2]; purified recombinant protein, TLR7 agonist, B cells from 6 healthy volunteers, 5 days): 1.6 fold
- increase in IgG ([2]; purified recombinant protein, activation cocktail with anti-IgM, CD40L and CpG): 1.2 fold
- enhanced IgG secretion ([2]; secretome screen, recombinantly expressed secreted proteins, TLR7 small molecule agonist, 5 days): 4.1 fold

B2: IFN-γ: interferon used as macrophage stimulus (protein, UniProt P01579 24-161, looked up)
Interferon gamma: QDPYVKEAENLKKYFNAGHSDVADNGTLFLGILKNWKEESDRKIMQSQIVSFYFKLFKNFKDDQSIQKSVETIKEDMNVKFFNSNKKKRDDFEKLTNYSVTDLNVQRKAIHELIQVMAELSPAAKTGKRKRSQMLFRG
- secretion of the LGALS3BP protein ([5]; ELISA in supernatants, stimuli for 20 h): increased secretion
- LGALS3BP mRNA expression ([5]; QPCR, stimuli for 6 h): induced
